The record followed here is the supplement of paper PMC9170038.

Holding throughout (details): FMN input: 0 or 200 uM; Eterna round: R93 (includes R88 designs)
The test system of series [1] is MS2 coat protein. The experiment in a line: apparent KD of MS2 coat protein, switch ON state; designed switch direction (-1 OFF switch, 1 ON switch): 1; higher = weaker reporter binding. In a few lines: (§1)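 Apparent KD was obtained for each design as the median of normalised binding-curve fits over its clusters. RNA switches transcribed on-chip from Illumina sequencing clusters were titrated with SNAP-549-labelled MS2 coat protein (twofold steps, 0.7 or 1.5 nM to 3 µM) in 100 mM Tris-HCl pH 7.5, 80 mM KCl, 4 mM MgCl2, without or with constant ligand.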

Series [2] relates to MS2 coat protein. The experiment in a line: apparent KD of MS2 coat protein, switch OFF state (with FMN for OFF switches, without FMN for ON switches); designed switch direction (-1 OFF switch, 1 ON switch): 1; higher = weaker reporter binding. In a few lines: as §1
Series [3] has as its system MS2 coat protein. Description: apparent KD of MS2 coat protein, switch ON state; designed switch direction (-1 OFF switch, 1 ON switch): -1; higher = weaker reporter binding. In a few lines:
as §1

Series [4] concerns MS2 coat protein. Description: apparent KD of MS2 coat protein, switch OFF state (with FMN for OFF switches, without FMN for ON switches); designed switch direction (-1 OFF switch, 1 ON switch): -1; higher = weaker reporter binding. In a few lines: as §1

For “AAAAAAAAAACGCAGGAUAUCCAAAAAAAAACAUGAGGAUCACCCAUGUAAAAAAAAAAAAAAUGGGAGAAGGGUGAAAAAAAAAA [Louisiana 6 - Jieux - Same State 2]”, the “apparent KD of MS2 coat protein” value with MS2 coat protein [1] stood at 0.0499 µM; with MS2 coat protein [2], 0.114 µM.
The matching figures for “AAAAAAAAAAGACAGGAUAUACAAUAUAUUACAUGAGGAUCACCCAUGUUUUUUUUUUAAUUAAAGUAGAAGGGUCAAAAAAAAAA [SS 2.1]”: 0.0256 µM and 0.0303 µM.
The matching figures for “AAAAAAAAAAGACAGGAUAUCCAAAAAAAAACAUGAGGAUCACCCAUGUAAAAAAAAAAAAAGUGGGAGAAGGGUCAAAAAAAAAA [Louisiana 4 - Jieux - Same State 2]”: 0.0249 µM and 0.0384 µM.
The matching figures for “AAAAAAAAAAGUCAGGAUAUACAAAUUUUUACAUGAGGAUCACCCAUGUUAAGGAAAAAAAAAAAGUAGAAGGGACAAAAAAAAAA [Same State 2 - Omei 3]”: 0.0153 µM and 0.0214 µM.
Consider “AAAAAAAAAAGUGAGGAUAUGGGAAAAUUAACAUGAGGAUCACCCAUGUGAUAAAAAAAAAAAAACCAGAAGGUACAAAAAAAAA [Original 73%, More Wateronthemoon, 1]”, for which the “apparent KD of MS2 coat protein” value in the series on MS2 coat protein [1] stood at 0.016 µM; in the series on MS2 coat protein [2], 0.0423 µM.
The matching figures for “AAAAAAAAAAGUGAGGAUAUGGGAAAAUUAACAUGAGGAUCACCCAUGUGAUAAAAAAAAAAAAACCAGAAGGUACAAAAAAAAAA [Same 2]”: 0.0261 µM and 0.035 µM.
The matching figures for “AAAAAACAUGAGGAUCACCCAUGUAAAAAAACAUGAGGAUAUAUAAAAAAAAAAAAAAAGAUAGAAGGCAUAAAUA [JR_SS001_Sub1201]”: 0.128 µM and 0.0774 µM.
The corresponding values for “AAAAAACAUGAGGAUCACCCAUGUAAAAAAAUCGCAGGAUAUACGGUCGCGAAAGCGACCGUAGAAGGGCGAUCCU [Louisiana 3 - Jieux - Same State 1]” are 0.0591 µM and 0.0753 µM.
With “AAAAAACAUGAGGAUCACCCAUGUAAUAAAACGUCAGGAUAUUGAUUUUAUUAUUUAUUACAAGAAGGGACAAAAA [Same State 1 - Omei 1]”, the “apparent KD of MS2 coat protein” value was 0.035 µM in the series on MS2 coat protein [1] and 0.055 µM in the series with MS2 coat protein [2].
The matching figures for “AAAAAACAUGAGGAUCACCCAUGUAAUACAACAUCAGGAUAUUGAUUUUACUAUGUAUUGCAAGAAGGGAUGAAAA [Same State 1.3a (Same State 1 - Omei 2 )]”: 0.0712 µM and 0.0452 µM.
The corresponding values for “AAAAAACAUGAGGAUCACCCAUGUAGAAAUAUGGGAGGAUAUGGAAACACGAAAGUGAAACCAGAAGGCUCAAAAG [77%, Mat - Mod of Eli, 8]” are 0.0266 µM and 0.0695 µM.
Regarding “GAAAAACAUGAGGAUCACCCAUGUAAGGAUAUGCUGAAAAAACACUGGAAACAGUGCAGCAGAAGGUACAAAAG [Mat - Exclusion 1 - Eli mod - D100]”, the “apparent KD of MS2 coat protein” value in the series on MS2 coat protein [3] worked out at 0.0203 µM; in the series on MS2 coat protein [4] it was 0.0733 µM.
The matching figures for “GAAAAACAUGAGGAUCACCCAUGUCAGGAUAUGUAGAAAAAGAAAAAAAGAAAAGAAAACAGAAGGGACAAAAG [Mat - Same state - Mayanna Mod - D105]”: 0.0326 µM and 0.0385 µM.
The corresponding values for “GAAAAGAAAGGAUAUAAAACAGAGGAUAUACAUAAAUAAAAACAUGAGGAUCACCCAUGUAGAAGGCUGAAAAG [Meechl Ex2 R2 m2]” are 0.0332 µM and 0.0205 µM.
The corresponding values for “GAAAAGUCAGGAUAUGCAGAAAAAAAAACGAAAAAAAAACUGCAGAAGGGACAUGAGGAUCACCCAUGUUAAAG [Mat - Exclusion 4 - Mayanna - D128]” are 0.0509 µM and 0.0331 µM.
In the case of “GAAAUACGAGGAUAUACAUGAGGAUCACCCAUGUCAAAAAAUGACUACACAAAAGAAAGUAGAAGGCGUAAAAG [Mat - Exclusion 3 - Mayanna mod - D128]”, the “apparent KD of MS2 coat protein” value came to 0.0286 µM in the series on MS2 coat protein [3] and 0.0384 µM in the series on MS2 coat protein [4].
The corresponding values for “GAAGAACAUGAGGAUCACCCAUGUCAGGAUAUGCACUACGGAAUAAUAAGUAAUGGAAGUAGAAGGGACAAGAA [Ex 1 May 53]” are 0.0262 µM and 0.0264 µM.
The matching figures for “GCUUGGGAAGGAUAUACAUGAGGAUCACCCAUGUGAGAGAAAAAAGUGAGAAAGAAAAGUAGAAGGUCCUGAGG [salish99-ex3-108]”: 0.0712 µM and 0.152 µM.
With “GGAAAGUGAGGAUAUGCAUAACAAAUACAAAGAGAAACAAAGCAGAAGGCACAUGAGGAUCACCCAUGUAAACA [Exclusion 4 Float]”, the figures for the “apparent KD of MS2 coat protein” value in the series on MS2 coat protein [3] and in the series on MS2 coat protein [4] were 0.0273 µM and 0.0227 µM, respectively.
Take “GGGAUGUCAGGAUAUGUGUAAAGAAUAAAACAAAUAACAACACAGAAGGGACAUGAGGAUCACCCAUGUUACCC [May 39]”: the “apparent KD of MS2 coat protein” value in the series with MS2 coat protein [3] amounted to 0.017 µM; in the series with MS2 coat protein [4], 0.0154 µM.
The matching figures for “GGGCCACAUGAGGAUCACCCAUGUAAGGAUAUGCUAGGGAGGGAAAAAAUUUCGCCAGGCAGAAGGUACUAAAG [Janelle Amethyst 18 Mod 7 - Jieux - Exclusion 1]”: 0.0236 µM and 0.0314 µM.
As for “GGGUAACAUGAGGAUCACCCAUGUGAGGAUAUUCUAGGGAUGGAAGCUCGGCCGGCCAGGAGAAGGUACUAAAG [Janelle Amethyst 18 Mod 20 - Jieux - Exclusion 1]”, the results for the “apparent KD of MS2 coat protein” value with MS2 coat protein [3] and in the series on MS2 coat protein [4] were 0.0263 µM and 0.0368 µM, respectively.
Turning to “GGUUGGCGAGGAUAUACAUGAGGAUCACCCAUGUGAGAGAAAAAAGUGAGAAAGAAAAGUAGAAGGCGCUGACU [salish99-ex3-04]”, the “apparent KD of MS2 coat protein” value stood at 0.0545 µM in the series with MS2 coat protein [3] and 0.262 µM with MS2 coat protein [4].
Consider “GGUUGGCGAGGAUAUACAUGAGGAUCACCCAUGUGAGAGAAAAAAGUGAGAAAGAAAAGUAGAAGGUGUUGACG [salish99-ex3-70]”, for which the “apparent KD of MS2 coat protein” value with MS2 coat protein [3] came to 0.0554 µM; with MS2 coat protein [4], 0.0567 µM.
Turning to “GGUUGGCGAGGAUAUACAUGAGGAUCACCCAUGUGAGAGAAAAAAGUGAGGAGGGAAAGUAGAAGGCGCUGACG [salish99-ex3-16]”, the “apparent KD of MS2 coat protein” value came out at 0.0273 µM in the series with MS2 coat protein [3] and 0.0419 µM with MS2 coat protein [4].
The corresponding values for “GGUUGGCGAGGAUAUACAUGAGGAUCACCCAUGUGAGAGAUAAAAGUGAGAAAGAAAAGUAGAAGGCGCUGACG [salish99-ex3-45]” are 0.0292 µM and 0.065 µM.
The matching figures for “GGUUGUGUAGGAUAUACAUGAGGAUCACCCAUGUGAGAGAAAAAAGUGAGAAAGAAAAGUAGAAGGACGUGACG [salish99-ex3-72]”: 0.0453 µM and 0.0427 µM.
The corresponding values for “GUCCGACAUGAGGAUCACCCAUGUAAGGAUAUGUAUCCUUCGGCCCGAACCAGAGGAAGCAGAAGGUACAGGGA [Oneserqu]” are 0.0248 µM and 0.0209 µM.
Turning to “GUCCUACAUGAGGAUCACCCAUGUCAGGAUAUGUAGCGUCCGAGCGAAAAGGCCCGGAGCAGAAGGGACAGGUG [Maisbia]”, the “apparent KD of MS2 coat protein” value came out at 0.0161 µM in the series on MS2 coat protein [3] and 0.0201 µM with MS2 coat protein [4].
The matching figures for “GUGUACAGAGGAUAUACAUGAGCAUGGAAACAUGCAGGAUCACAUGAGGAUCACCCAUGUAGAAGGCUGUACAC [Ex2: 732]”: 0.0351 µM and 0.012 µM.
For the sequence “UAAAAGUGAGGAUAUUCGGAUAGGAAAACGAAAACCUAUCCGAAGAAGGCACAUGAGGAUCACCCAUGUGGAAU [Mat - Exaclusion 4 - Eli mod - D48]”, the “apparent KD of MS2 coat protein” value was found to be 0.0313 µM in the series on MS2 coat protein [3] and 0.036 µM with MS2 coat protein [4].
The matching figures for “UAAAGACAUGAGGAUCACCCAUGUGAGGAUAUCGGAGACAACAGAACAUCAAGUACAAUGAGAAGGCACAGAAA [JR_Exc001_Sub018]”: 0.0406 µM and 0.0471 µM.
The corresponding values for “UACUUACAUGAGGAUCACCCAUGUCAGGAUAUGCGCUCAGAGUAUAUAUAAGAUUCAAGCAGAAGGGACACUAA [JR_Exc001_Sub204]” are 0.0348 µM and 0.0372 µM.
The matching figures for “UCACACCUAGGAUAUACAUGAGGAUCACCCAUGUGGCACUCCGCAGGCAUUGCUCCCAGUAGAAGGAGGACACG [Veterexe]”: 0.0189 µM and 0.0238 µM.
“UCCGGAUUAGGAUAUACAUGAGGAUCACCCAUGUGACAAAAAUAUUUUACAAAACCAUGUAGAAGGAAUCCGGA [E3-1.3]”: the results for the “apparent KD of MS2 coat protein” value in the series with MS2 coat protein [3] and in the series on MS2 coat protein [4] were 0.125 µM and 0.408 µM, respectively.
The matching figures for “UCCUCACAUGAGGAUCACCCAUGUCAGGAUAUCUCACAGCGAAAGAAUAAAGGCUGCAAGAGAAGGGACACAAA [Raisa]”: 0.0227 µM and 0.0442 µM.
The corresponding values for “UCCUUACAUGAGGAUCACCCAUGUUAGGAUAUCUCGCUUGCGCAAUCACAGCGCAAGCAGAGAAGGGACGCGGG [Ledige]” are 0.0228 µM and 0.0291 µM.
The matching figures for “UUUAAGUGAGGAUAUACGAAUAGUAAGUAAGUAUAACAGACGUAGAAGGCACAUGAGGAUCACCCAUGUAAAUA [JR_Exc004_Sub305]”: 0.0244 µM and 0.0186 µM.
